This passage reports fold increase of the amount co-purified results from PMC3795685.

The target in the test is TAP-tagged wild-type Infected Cell Polypeptide 4 (ICP4) of HSV-1 strain KOS (herpes simplex virus type 1 (HSV-1), strain KOS) (UniProt P08392). Description: pull-down; streptavidin affinity purification of TAP-tagged ICP4 from nuclear extracts of infected Vero cells (3 or 6 hpi), independent samples; biotin eluates analysed by Western blot, in part quantified with a LI-COR Odyssey imager and normalised to ICP4; untagged virus as control.
Chain of UniProt P08392 (P08392 whole entry): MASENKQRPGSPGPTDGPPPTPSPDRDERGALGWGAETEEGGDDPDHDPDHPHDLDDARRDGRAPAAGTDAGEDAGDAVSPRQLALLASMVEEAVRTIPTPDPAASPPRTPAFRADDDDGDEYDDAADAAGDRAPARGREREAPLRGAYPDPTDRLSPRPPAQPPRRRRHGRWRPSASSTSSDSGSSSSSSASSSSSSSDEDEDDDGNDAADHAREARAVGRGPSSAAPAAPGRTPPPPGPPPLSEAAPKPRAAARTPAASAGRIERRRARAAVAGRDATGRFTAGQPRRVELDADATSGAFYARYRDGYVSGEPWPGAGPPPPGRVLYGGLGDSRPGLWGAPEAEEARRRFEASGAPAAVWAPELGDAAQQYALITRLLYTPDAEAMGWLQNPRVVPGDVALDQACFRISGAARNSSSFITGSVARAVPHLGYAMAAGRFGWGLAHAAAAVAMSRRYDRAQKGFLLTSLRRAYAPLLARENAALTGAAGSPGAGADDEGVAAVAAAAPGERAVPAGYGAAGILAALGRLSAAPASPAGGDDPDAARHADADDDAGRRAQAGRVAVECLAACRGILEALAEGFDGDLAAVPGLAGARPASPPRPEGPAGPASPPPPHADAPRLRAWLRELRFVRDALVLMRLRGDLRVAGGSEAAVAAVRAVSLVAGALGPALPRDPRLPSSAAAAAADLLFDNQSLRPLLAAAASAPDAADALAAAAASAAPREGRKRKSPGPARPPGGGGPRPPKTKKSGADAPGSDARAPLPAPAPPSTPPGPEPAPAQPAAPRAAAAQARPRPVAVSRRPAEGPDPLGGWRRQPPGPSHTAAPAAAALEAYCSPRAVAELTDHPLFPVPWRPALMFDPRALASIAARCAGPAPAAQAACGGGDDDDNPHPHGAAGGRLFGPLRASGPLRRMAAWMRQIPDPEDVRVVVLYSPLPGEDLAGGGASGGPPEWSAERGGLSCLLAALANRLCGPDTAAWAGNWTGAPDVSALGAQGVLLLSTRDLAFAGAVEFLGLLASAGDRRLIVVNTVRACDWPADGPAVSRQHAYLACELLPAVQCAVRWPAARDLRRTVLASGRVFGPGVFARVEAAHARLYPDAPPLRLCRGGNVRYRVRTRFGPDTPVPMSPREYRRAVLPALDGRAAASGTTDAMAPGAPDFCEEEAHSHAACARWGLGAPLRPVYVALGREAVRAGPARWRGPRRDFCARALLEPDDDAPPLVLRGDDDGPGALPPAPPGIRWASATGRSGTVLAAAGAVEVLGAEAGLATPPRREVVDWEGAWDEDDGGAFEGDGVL

The substance MED1 (natural protein) returned a fold increase of the amount co-purified at 6 hpi against 3 hpi (normalised to ICP4) of 3 fold.
